Measurements from paper PMC1948075 (The EMBO Journal, 2007).
Ends that are not written are not given here.

Target: T1, GST-IgFLNa21 (amino acids 2236–2329) (human, UniProt P21333 2236-2329)
T1 sequence (looked up): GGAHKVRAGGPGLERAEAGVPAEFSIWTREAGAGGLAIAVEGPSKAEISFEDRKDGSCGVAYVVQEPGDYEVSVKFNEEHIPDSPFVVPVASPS
Test: pull-down

Kd: 700 ± 100 nM
B1: recombinant His-tagged integrin β7 cytoplasmic tail model protein (domain or fragment, UniProt P26010 747-798, looked up)
chain: RLSVEIYDRREYSRFEKEQQQLNWKQDSNPLYKSAITTTINPRFQEADSPTL
modifications: also: His-tagged, tag place not given here
